Measurements as given in patent US20250152742A1, “COMPOSITIONS AND METHODS FOR NEUROLOGICAL DISEASES” (Trames Bio, Inc., priority 2022, published 2025).
Where a chain is given by its changes, count along the chain named. In names and notes the source's numbering stands.

Test system: engineered chimeric receptor SEQ ID NO: 33 and its mutants (human α7-nAChR ligand binding domain / human GlyRα1 ion pore domain) in Lenti-X 293T cells
Assay: YFP fluorescence quenching anion reporter plate reader assay (percent quench, EC50)
Assay type: cell-based
Conditions: for YFP fluorescence quenching using CNL001 (percent quench): receptor named in row; for YFP fluorescence quenching using Facinicline, 30 nM fac: ligand Facinicline 30 nM; for YFP fluorescence quenching using Facinicline, 100 nM fac: ligand Facinicline 100 nM; for YFP fluorescence quenching using Facinicline, 300 nM fac: ligand Facinicline 300 nM; for YFP fluorescence quenching using Facinicline, 10 uM fac: ligand Facinicline 10 uM; for YFP fluorescence quenching using Facinicline, 30 uM fac: ligand Facinicline 30 uM; for YFP fluorescence quenching using TC-6987, 1 uM tc6987: ligand TC-6987 1 uM; for YFP fluorescence quenching using TC-6987, 10 uM tc6987: ligand TC-6987 10 uM; for YFP fluorescence quenching using TC-6987, 500 uM tc6987: ligand TC-6987 500 uM
Summary of the method: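 Lenti-X 293T cells co-expressing an anion-quenchable YFP were transiently transfected with receptor DNA, then ligand was added in NaI-substituted buffer (pH 7.2) after 30 min at 37 °C. Fluorescence was read about 2 min; percent quench = mean of last 10 s over 15 s pre-ligand baseline.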

[1] = 1 nM CNL001, first column so headed
[2] = 1 nM CNL001, second column so headed
[3] = 1 nM brd (TC-5619/Bradanicline)
[4] = 3 nM brd (TC-5619/Bradanicline)
[5] = 10 nM CNL001, first column so headed
[6] = 10 nM CNL001, second column so headed
[7] = 10 nM brd (TC-5619/Bradanicline)
[8] = 30 nM brd (TC-5619/Bradanicline)
[9] = 50 nM CNL001, first column so headed
[10] = 50 nM CNL001, second column so headed
[11] = 100 nM CNL001, first column so headed
[12] = 100 nM CNL001, second column so headed
[13] = 100 nM brd (TC-5619/Bradanicline)
[14] = 300 nM brd (TC-5619/Bradanicline)
[15] = 1 uM CNL001, first column so headed
[16] = 1 uM CNL001, second column so headed
[17] = 1 uM brd (TC-5619/Bradanicline)

B1: CODA807: engineered receptor: Y115D, L131E in SEQ ID NO: 33 (protein)
chain: MRCSPGGVWLALAASLLHVSLQGEFQRKLYKELVKNYNPLERPVANDSQPLTVYFSLSLLQIMDVDEKNQVLTTNIWLQMSWTDHYLQWNVSEYPGVKTVRFPDGQIWKPDILLDNSADERFDATFHTNVEVNSSGHCQYLPPGIFKSSCPMDLKNFPMDVQTCKLKFGSWSYGGWSLDLQMQEADISGYIPNGEWDLVGIPGKRSERFYECCKEPYPDVTFTVTMRRRMGYYLIQMYIPSLLIVILSWISFWINMDAAPARVGLGITTVLTMTTQSSGSRASLPKVSYVKAIDIWMAVCLLFVFSALLEYAAVNFVSRQHKELLRFRRKRRHHKSPMLNLFQEDEAGEGRFNFSAYGMGPACLQAKDGISVKGANNSNTTNPPPAPSKSPEEMRKLFIQRAKKIDKISRIGFPMAFLIFNMFYWIIYKIVRREDVHNQ
modifications: synthetic sequence of chimeric LGIC
- YFP fluorescence quenching using CNL001 (percent quench) [1]: 0.885%
- YFP fluorescence quenching using CNL001 (percent quench) [2]: −1.707%
- YFP fluorescence quenching using TC-5619/Bradanicline (percent quench) [3]: −1.52%
- YFP fluorescence quenching using TC-5619/Bradanicline (percent quench) [4]: −5.35%
- YFP fluorescence quenching using CNL001 (percent quench) [5]: −0.567%
- YFP fluorescence quenching using CNL001 (percent quench) [6]: 0.043%
- YFP fluorescence quenching using TC-5619/Bradanicline (percent quench) [7]: −3.49%
- YFP fluorescence quenching using TC-6683 (percent quench) (30 nM TC-6683): −26.801%
- YFP fluorescence quenching using TC-5619/Bradanicline (percent quench) [8]: −2.16%
- YFP fluorescence quenching using CNL001 (percent quench) [9]: 5.141%
- YFP fluorescence quenching using CNL001 (percent quench) [10]: 9.409%
- YFP fluorescence quenching using ABT-126 (percent quench) (50 nM abt (ABT-126)): −1.68%
- YFP fluorescence quenching using CNL001 (percent quench) [11]: 9.796%
- YFP fluorescence quenching using CNL001 (percent quench) [12]: 11.009%
- YFP fluorescence quenching (percent quench) (100 nM CNL002): −5.71%
- YFP fluorescence quenching using ABT-126 (percent quench) (100 nM abt (ABT-126)): −2.25%
- YFP fluorescence quenching using AZD-0328 (percent quench) (100 nM azd0328): 24.49%
- YFP fluorescence quenching using TC-5619/Bradanicline (percent quench) [13]: 4.18%
- YFP fluorescence quenching using TC-6683 (percent quench) (300 nM TC-6683): −25.363%
- YFP fluorescence quenching using ABT-126 (percent quench) (300 nM abt (ABT-126)): −2.37%
- YFP fluorescence quenching using AZD-0328 (percent quench) (300 nM azd0328): 45.34%
- YFP fluorescence quenching using TC-5619/Bradanicline (percent quench) [14]: 70.2%
- YFP fluorescence quenching using CNL001 (percent quench) [15]: 27.914%
- YFP fluorescence quenching using CNL001 (percent quench) [16]: 29.109%
- YFP fluorescence quenching (percent quench) (1 uM CNL002): 13.03%
- YFP fluorescence quenching using ABT-126 (percent quench) (1 uM abt (ABT-126)): 3.68%
- YFP fluorescence quenching using TC-5619/Bradanicline (percent quench) [17]: 43.11%
- YFP fluorescence quenching using TC-6683 (percent quench) (3 uM TC-6683): −23.651%
- YFP fluorescence quenching (percent quench) (10 uM ach (acetylcholine)): 15.45%
- YFP fluorescence quenching (percent quench) (30 uM CNL002): 25.2%
- YFP fluorescence quenching using TC-6683 (percent quench) (30 uM TC-6683): −26.235%
- YFP fluorescence quenching using AZD-0328 (percent quench) (30 uM azd0328): 71.21%
- YFP fluorescence quenching using TC-6683 (percent quench) (100 uM TC-6683): −24.182%
- YFP fluorescence quenching (percent quench) (100 uM ach (acetylcholine)): 13.77%
- YFP fluorescence quenching (percent quench) (1 mM ach (acetylcholine)): 27.42%
- YFP fluorescence quenching (percent quench) (3 mM ach (acetylcholine)): 53.62%
- YFP fluorescence quenching using Facinicline, 30 nM fac: 45.76
- YFP fluorescence quenching using Facinicline, 100 nM fac: 63.92
- YFP fluorescence quenching using Facinicline, 300 nM fac: 79.43
- YFP fluorescence quenching using Facinicline, 10 uM fac: 80.1
- YFP fluorescence quenching using Facinicline, 30 uM fac: 84.91
- YFP fluorescence quenching using TC-6987, 1 uM tc6987: 36.07
- YFP fluorescence quenching using TC-6987, 10 uM tc6987: 31.35
- YFP fluorescence quenching using TC-6987, 500 uM tc6987: 28.18

B2: CODA805: engineered receptor: Y115D, S170T in SEQ ID NO: 33 (protein)
chain: B1 chain with E131L, S170T
modifications: synthetic sequence of chimeric LGIC
- YFP fluorescence quenching using CNL001 (percent quench) [1]: −10.729%
- YFP fluorescence quenching using CNL001 (percent quench) [2]: −15.278%
- YFP fluorescence quenching using TC-5619/Bradanicline (percent quench) [3]: −9.78%
- YFP fluorescence quenching using TC-5619/Bradanicline (percent quench) [4]: −12.06%
- YFP fluorescence quenching using CNL001 (percent quench) [5]: −20.403%
- YFP fluorescence quenching using CNL001 (percent quench) [6]: −14.905%
- YFP fluorescence quenching using TC-5619/Bradanicline (percent quench) [7]: −9.02%
- YFP fluorescence quenching using TC-5619/Bradanicline (percent quench) [8]: −16.3%
- YFP fluorescence quenching using CNL001 (percent quench) [9]: −14.303%
- YFP fluorescence quenching using CNL001 (percent quench) [10]: −15.741%
- YFP fluorescence quenching using ABT-126 (percent quench) (50 nM abt (ABT-126)): −11.83%
- YFP fluorescence quenching using CNL001 (percent quench) [11]: −12.637%
- YFP fluorescence quenching using CNL001 (percent quench) [12]: −10.606%
- YFP fluorescence quenching (percent quench) (100 nM CNL002): −18.17%
- YFP fluorescence quenching using ABT-126 (percent quench) (100 nM abt (ABT-126)): −11.5%
- YFP fluorescence quenching using AZD-0328 (percent quench) (100 nM azd0328): −0.71%
- YFP fluorescence quenching using TC-5619/Bradanicline (percent quench) [13]: −7.44%
- YFP fluorescence quenching using ABT-126 (percent quench) (300 nM abt (ABT-126)): −8.01%
- YFP fluorescence quenching using AZD-0328 (percent quench) (300 nM azd0328): −1.73%
- YFP fluorescence quenching using TC-5619/Bradanicline (percent quench) [14]: −10.93%
- YFP fluorescence quenching using CNL001 (percent quench) [15]: −13.535%
- YFP fluorescence quenching using CNL001 (percent quench) [16]: −11.335%
- YFP fluorescence quenching (percent quench) (1 uM CNL002): −15.2%
- YFP fluorescence quenching using ABT-126 (percent quench) (1 uM abt (ABT-126)): −9.34%
- YFP fluorescence quenching using TC-5619/Bradanicline (percent quench) [17]: −4.55%
- YFP fluorescence quenching (percent quench) (10 uM ach (acetylcholine)): −0.46%
- YFP fluorescence quenching (percent quench) (30 uM CNL002): −14%
- YFP fluorescence quenching using AZD-0328 (percent quench) (30 uM azd0328): 47.39%
- YFP fluorescence quenching (percent quench) (100 uM ach (acetylcholine)): −4.93%
- YFP fluorescence quenching (percent quench) (1 mM ach (acetylcholine)): −11.18%
- YFP fluorescence quenching (percent quench) (3 mM ach (acetylcholine)): −3.53%
- YFP fluorescence quenching using Facinicline, 30 nM fac: 38.08
- YFP fluorescence quenching using Facinicline, 100 nM fac: −14.37
- YFP fluorescence quenching using Facinicline, 300 nM fac: 19.41
- YFP fluorescence quenching using Facinicline, 10 uM fac: 67.33
- YFP fluorescence quenching using Facinicline, 30 uM fac: 79.67
- YFP fluorescence quenching using TC-6987, 1 uM tc6987: 31.9
- YFP fluorescence quenching using TC-6987, 10 uM tc6987: 25.54
- YFP fluorescence quenching using TC-6987, 500 uM tc6987: 21.13
